For this experiment, the target named is T1, recombinant human IL-23 (p19/p40 heterodimer) (human, UniProt Q9NPF7).
T1 chain 1: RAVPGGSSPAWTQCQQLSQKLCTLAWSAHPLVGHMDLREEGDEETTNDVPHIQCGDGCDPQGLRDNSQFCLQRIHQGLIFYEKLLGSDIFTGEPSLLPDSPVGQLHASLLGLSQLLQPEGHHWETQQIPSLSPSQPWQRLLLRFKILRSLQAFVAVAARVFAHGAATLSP
T1 chain 2: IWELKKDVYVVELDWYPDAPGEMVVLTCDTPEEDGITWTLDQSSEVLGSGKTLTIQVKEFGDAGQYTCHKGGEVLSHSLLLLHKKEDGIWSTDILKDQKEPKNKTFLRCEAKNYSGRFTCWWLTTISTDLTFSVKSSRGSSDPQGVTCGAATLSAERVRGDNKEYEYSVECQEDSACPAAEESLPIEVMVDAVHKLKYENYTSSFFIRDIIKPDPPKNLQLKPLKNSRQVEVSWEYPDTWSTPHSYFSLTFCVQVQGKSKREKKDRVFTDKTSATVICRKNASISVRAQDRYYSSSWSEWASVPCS
The experiment can be described thus: KinExA.

B1: Antibody B (antibody, V domains shown)
VH: QVQLQESGPGLVKPSQTLSLTCTVSGGSISSGGYYWSWIRQHPGKGLEWIGHIHYSGNTYYNPSLKSRVTISVDTSKNQFSLKLSSVTAADTAVYYCARNRGFYYGMDVWGQGTTVTVSS
VL: DIQMTQSPSSVSASVGDRVTITCRASQVISSWLAWYQQKPGKAPSLLIYAASSLQSGVPSRFSGSVSGTDFTLTISSLQPEDFATYYCQQANSFPFTFGPGTKVDFK
Usually Kd stands for the free concentration of one partner at which half of the binding sites on the other are occupied at equilibrium, for simple one-to-one binding. As for B1, the Kd is 3.99 pM.

For the origin of these results see patent publication US9487580.
